Measured values reported in patent publication US10227617B2, “Sequestration of carbon dioxide with hydrogen to useful products” (UNIVERSITY OF GEORGIA RESEARCH FOUNDATION, INC., priority 2012, dated 2019).
“Also recorded” adds a separate entry of the source.

Experiments:
P. furiosus cultures = assay: Stability of 3-HP added to P. furiosus cultures; assay type: cell-based, Pyrococcus furiosus
E9 = target: T1, E9 (Metallosphaera sedula, UniProt A4YGN0); assay: NADPH-dependent assay for E9 in cell-free extracts; assay type: biochemical
T1 construct: expressed in transfected cells; host or cells: Pyrococcus furiosus strain MW43 (SP2B operon integrated at genome region 2); cell-free extract
T1 sequence (A4YGN0 1-360): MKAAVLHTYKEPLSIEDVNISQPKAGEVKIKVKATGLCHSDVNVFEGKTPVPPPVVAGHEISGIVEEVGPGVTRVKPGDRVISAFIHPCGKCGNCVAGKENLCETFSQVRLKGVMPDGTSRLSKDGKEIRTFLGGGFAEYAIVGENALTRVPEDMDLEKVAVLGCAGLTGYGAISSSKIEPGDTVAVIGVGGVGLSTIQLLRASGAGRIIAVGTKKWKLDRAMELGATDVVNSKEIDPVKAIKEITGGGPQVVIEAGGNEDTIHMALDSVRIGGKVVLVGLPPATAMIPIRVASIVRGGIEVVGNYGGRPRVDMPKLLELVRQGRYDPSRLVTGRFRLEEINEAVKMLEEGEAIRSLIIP
Protocol: NADPH-dependent assay for E9 of the SP2B subpathway (FIG. 36). Assays were carried out in sealed anaerobic cuvettes at 75° C. containing 100 mM MOPS pH 7.5 (measured at room temperature), 5 mM MgCl2, 5 mM DTT, 1 mM NADPH and the cell-free extract of P. furiosus (0.25 mg/ml). After addition of 1 mM succinic semialdehyde, NADPH oxidation was determined by the absorbance at 340 nm and rates were calculated based on the difference before and after the addition of the succinic semialdehyde.

[1] = 4-hydroxybutyrate-CoA synthetase assay (DTNB; HPLC confirmation); assay type: biochemical
Protocol: A time point (0 min) was taken before heating.
The soluble, heat-treated lysate was loaded onto the column with binding buffer (50 mM sodium phosphate, 300 mM NaCl, 20 mM imidazole, pH 7.4) and the his-tagged enzyme removed with elution buffer (50 mM sodium phosphate, 300 mM NaCl, 500 mM imidazole, pH 7.4).

[2] = CoA synthetase assay, substrate hexanoic acid; assay type: biochemical; settings: six carbon hexanoic acid
Protocol: (§1) Two assays were used to measure ligase activity, one spectrophotometric and one using high-performance liquid chromatography (HPLC). A discontinuous assay was used to measure substrate-dependent disappearance of CoA at 75° C. The reaction mixture (600 μl) contained 100 mM MOPS-KOH (pH 7.9), 5 mM MgCl2, 2.5 mM ATP, 0.15 mM CoA, and purified enzyme. At each time point, 80 μl of reaction mixture was added to 80 μl cold 5,5′-dithiobis-(2-nitrobenzoic acid) (DTNB). A time point (0 min) was taken before heating. The reaction mixture was incubated for 2 min at 75° C., followed by addition of substrate. Additional time points were taken at 30, 60, 90, 120, and 180 sec after addition of substrate. Absorbance was measured at 412 nm to determine free CoA concentration, based on the concentration of 2-nitro-5-thiobenzoate dianion (NTB^2−) (ε412=14,150 M^−1 cm^−1) (Hawkins et al., 2011, ACS Catal. 1, 1043-1050, Riddles et al., 1983, Methods in Enzymology 91, 49-60). Enzymes were kinetically characterized by varying the concentration of the […] substrate from 0.05 mM to 12 mM, while the other substrate concentrations were held constant. Measurements for specific activity were taken under saturating substrate concentrations (10 mM). Formation of the CoA ester was also confirmed using HPLC (Waters). […]

[3] = CoA synthetase assay (DTNB), substrate propionate; assay type: biochemical; settings: saturating substrate concentrations
Protocol: (§2) Two assays were used to measure ligase activity, one spectrophotometric and one using high-performance liquid chromatography (HPLC). A discontinuous assay was used to measure substrate-dependent disappearance of CoA at 75° C. The reaction mixture (600 μl) contained 100 mM MOPS-KOH (pH 7.9), 5 mM MgCl2, 2.5 mM ATP, 0.15 mM CoA, and purified enzyme. At each time point, 80 μl of reaction mixture was added to 80 μl cold 5,5′-dithiobis-(2-nitrobenzoic acid) (DTNB). A time point (0 min) was taken before heating. The reaction mixture was incubated for 2 min at 75° C., followed by addition of substrate. Additional time points were taken at 30, 60, 90, 120, and 180 sec after addition of substrate. Absorbance was measured at 412 nm to determine free CoA concentration, based on the concentration of 2-nitro-5-thiobenzoate dianion (NTB^2−) (ε412=14,150 M^−1 cm^−1) (Hawkins et al., 2011, ACS Catal. 1, 1043-1050, Riddles et al., 1983, Methods in Enzymology 91, 49-60). Enzymes were kinetically characterized by varying the concentration of the acyl-CoA substrate from 0.05 mM to 12 mM, while the other substrate concentrations were held constant. Measurements for specific activity were taken under saturating substrate concentrations (10 mM). Formation of the CoA ester was also confirmed using HPLC (Waters). […]

[4] = Ligase activity over a range of short-chain linear organic acids; assay type: biochemical
Protocol: as §1

[5] = CoA synthetase (acyl-CoA ligase) assay, disappearance of CoA (DTNB), substrate acetate; assay type: biochemical; settings: saturating substrate concentrations
Protocol: as §2

O=C(O)CCO [3-HP, 3-hydroxypropionic acid]
stability when added to P. furiosus cultures (P. furiosus cultures): stable

B1: E9: M. sedula succinate semialdehyde reductase, SEQ ID NO:12, in extracts of strain MW43 (protein, listed as Metallosphaera sedula)
chain: T1 sequence (A4YGN0 1-360)
half-life of E9 (E9; at 90° C, cell-free extracts): ~30 min | assay temperature of maximum E9 activity (E9; cell extracts): above 80 °C

B2: Msed_0394: recombinant M. sedula enzyme with 4-hydroxybutyrate:CoA ligase activity, annotated AMP-dependent synthetase and ligase, SEQ ID NO:13 (protein, listed as Metallosphaera sedula)
chain: MGGFKIPNYEGVDPTGSWYSVLTPLLFLERAGKYFKDKTAVVYRDSRYTYSTFYDNVMVQASALMRRGFSREDKLSFISRNRPEFLESFFGVPYAGGVLVPINFRLSPKEMAYIINHSDSKFVVVDEPYLNSLLEVKDQIKAEIILLEDPDNPSASETARKEVRMTYRELVKGGSRDPLPIPAKEEYSMITLYYTSGTTGLPKGVMHHHRGAFLNAMAEVLEHQMDLNSVYLWTLPMFHAASWGFSWATVAVGATNVCLDKVDYPLIYRLVEKERVTHMCAAPTVYVNLADYMKRNNLKFSNRVHMLVAGAAPAPATLKAMQEIGGYMCHVYGLTETYGPHSICEWRREWDSLPLEEQAKLKARQGIPYVSFEMDVFDANGKPVPWDGKTIGEVVMRGHNVALGYYKNPEKTAESFRDGWFHSGDAAVVHPDGYIEIVDRFKDLINTGGEKVSSILVEKTLMEIPGVKAVAVYGTPDEKWGEVVTARIELQEGVKLTEEEVIKFCKERLAHFECPKIVEFGPIPMTATGKMQKYVLRNEAKAKANKEKS
production of 4HB-CoA from 4HB and CoA ([1]; reversed-phase HPLC): confirmed | rate of ligation of CoA to 4HB ([1]; substrate 4HB): 0.22 µmol·min/mg | activity with hexanoic acid [2]: No activity

B3: Msed_1353-G424: single substitution mutant (Trp424 to Gly) of acetate/propionate synthetase Msed_1353, SEQ ID NO:18 (protein, listed as Metallosphaera sedula)
chain: MSQPENESGLPFQEKVVPELLKHRLVTPEEYLRIHKKTVENYQEYWESVAKELDWFKPWEKALDDSHPPFYKWFVGGELNASYLAVDRHANSWRRNKVAIIWEGEPWENGPKEVRKLTYLDLYREVNRAAYLLKEVYGLKKGDTIGIYLPMIPELPIFMLAAARLGVAFTVVFSGFSAQAVADRMNDADTKLLITADGGWRRGKVIPLKEIVDKALETATTVKNVLVVRRTGTEISMKPGRDAYLHDVMSKVPIKAYVEPERVKSEDPLYILYTSGTTGKPKGIIHDTGGYMTLLHNTMKLVFDIRDTDVFWCTADIGWVTGHSYIVFGPLQEGATEVMYEGALDFPEPDRWVSIIERHQVSILYTSPTAIRTFMKQGEQWIKKHDVSSVRLMHSVGEPINPEAWRWFHKLVGRGQVPFGSTWGMTETGGIMISHMPGGYLVPMKPGTNGPPLLGIETNVFDEEGKPMPEEQKGYLVITKPWPGMPLTINKDPERYVKVYWNKFPNVFYAGDYAIKDRDGYFWILGRADEVMKIAGHRIGTYELESALVQHPAIAEAAVVGVPDPVRGEVAEAFVILRSGVEPSAKLREEIVKFVRENFGPIAVFREIHFVSKLPKTRSGKIMRRVIKAVATNSPVGDVTTLEDEASVEEVKKAFQELKEQVGK
specific activity ([1]; 4HB, saturating substrate concentrations): 1.8 µmol/min/mg | specific activity [3]: 3.5 µmol/min/mg | substrates on which activity was shown [4]: activity on C4-C8 substrates; also recorded: activity on 3HP, 4HB, valerate, hexanoate, and even octanoate | decrease of activity of mutant versus native enzyme ([4]; on acetate and propionate): 60% | specific activity [5]: 3.6 µmol/min/mg
